{"source": "patent US8524227B2", "about": "“Anti-IL-TIF antibodies” (ZymoGenetics, Inc., priority 2002, dated 2013)", "molecules": {"B1": {"name": "zcytor16-Fc4: soluble receptor for IL-TIF, zcytor16 fused to Fc4; IL-TIF antagonist (protein)", "chain": "TQSTHESLKPQRVQFQSRNFHNILQWQPGRALTGNSSVYFVQYKIYGQRQWKNKEDCWGTQELSCDLTSETSDIQEPYYGRVRAASAGSYSEWSMTPRFTPWWETKIDPPVMNITQVNGSLLVILHAPNLPYRYQKEKNVSIEDYYELLYRVFIINNSLEKEQKVYEGAHRAVEIEALTPHSSYCVVAEIYQPMLDRRSQRSEERCVEIPEPRSSDKTHTCPPCPAPEAEGAPSVFLFPPKPKDTLMISRTPEVTCVVVDVSHEDPEVKFNWYVDGVEVHNAKTKPREEQYNSTYRVVSVLTVLHQDWLNGKEYKCKVSNKALPSSIEKTISKAKGQPREPQVYTLPPSRDELTKNQVSLTCLVKGFYPSDIAVEWESNGQPENNYKTTPPVLDSDGSFFLYSKLTVDKSRWQQGNVFSCSVMHEALHNHYTQKSLSLSPGK"}}, "key": {"[1]": {"experiment": "Mouse collagen induced arthritis (CIA) model", "format": "in vivo, mice", "conditions": "for IL-6 levels / SAA concentrations: Day 0 serum 4 hr post 25 μg LPS", "method": "Ten week old male DBA/1J mice (Jackson Labs) were divided into 3 groups of 13 mice/group. On day-21, animals were given a subcutaneous injection of 50-100 μl of 1 mg/ml chick Type II collagen formulated in Complete Freund's Adjuvant (prepared by Chondrex, Redmond, Wash.), and three weeks later on Day 0 they were given a 100 μl (25 μg) injection of LPS from E. coli 0111:B4, prepared as 250 μg/ml from a lyophilized aliquot (Sigma, St. Louis, Mo.). Zcytor16 was administered as an intraperitoneal injection 3 times a week for 4 weeks, from Day 0 to Day 25. The first two groups received either 100 or 10 μg of zcytor16 per animal per dose, and the third group received the vehicle control, PBS (Life Technologies, Rockville, Md.). Animals began to show symptoms of arthritis following the LPS injection, with most animals developing inflammation within 2-3 weeks. The extent of disease was evaluated in each paw by using a caliper to measure paw thickness, and by assigning a clinical score (0-3) to each paw: 0=Normal, 0.5=Toe(s) inflamed, 1=Mild paw inflammation, 2=Moderate paw inflammation, and 3=Severe paw inflammation as detailed below.\nAll animals were observed daily to assess the status of the disease in their paws, which was done by assigning a qualitative clinical score to each of the paws. Every day, each animal has its 4 paws scored according to its state of clinical disease. To determine the clinical score, the paw can be thought of as having 3 zones, the toes, the paw itself (manus or pes), and the wrist or ankle joint. The extent and severity of the inflammation relative to these zones was noted including observation all the toes for any joint swelling, torn nails, or redness, notation of any evidence of edema or redness in any of the paws, and notation any loss of fine anatomic demarcation of tendons or bones, and evaluation the wrist or ankle for any edema or redness, and notation if the inflammation extends proximally up the leg. A paw a score of 1, 2, or 3 was based first on the overall impression of severity, and second on how many zones were involved. The scale used for clinical scoring is shown below.\nBlood was collected throughout the experiment to monitor serum levels of anti-collagen antibodies. Animals were euthanized on Day 21, and blood was collected for serum and for CBC's. From each animal, one affected paw was collected in 10% NBF for histology and one was frozen in liquid nitrogen and stored at […] for mRNA analysis. Also, ½ spleen, ½ thymus, ½ mesenteric lymph node, one liver lobe and the left kidney were collected in RNAlater for RNA analysis, and ½ spleen, ½ thymus, ½ mesenteric lymph node, the remaining liver, and the right kidney were collected in 10% NBF for histology. Serum was collected and frozen at −80° C. for immunoglobulin and cytokine assays.\nApproximately 100 μL of peripheral blood was collected by retro-orbital bleed into serum separator tubes (Becton Dickinson). Serum was collected by centrifugation (2-3 min, 16,000×g, 4-6° C.) and stored at −20° C. until analyzed. To determine anti-collagen Ig antibody levels, NUNC plates were coated with 10 μg/mL chick type-II collagen (Chondrex, Redmond Wash.) and incubated overnight at 4° C. Plates were washed with ELISA C, blocked (5 minutes, room temperature) with Super Block (Pierce, Rockford, Ill.), and washed with ELISA C. Diluted serum samples (diluted in ELISA B 5-fold from 1:5000 to 1:625,000) were added to ELISA plates in triplicate and the plates were incubated overnight at 4° C. After incubation, the plates were washed with ELISA C, and peroxidase-labeled goat anti-mouse Ig Fc (Zymed, 1:2000 in ELISA B) was added. The plates were incubated (room temperature, 90 minutes), rinsed again using ELISA C, and HRP activity was developed using o-phenylenediamine dihydrochloride substrate (10 mL NovoD+1 tablet OPD+10 μL H2O2, Pierce). The reaction was stopped with 1N H2SO4. […]"}, "IL-TIF": {"biological_target": "T1, IL-TIF (Homo sapiens, UniProt Q9GZX6)", "T1 sequence (Q9GZX6 13-179 limits assumed)": "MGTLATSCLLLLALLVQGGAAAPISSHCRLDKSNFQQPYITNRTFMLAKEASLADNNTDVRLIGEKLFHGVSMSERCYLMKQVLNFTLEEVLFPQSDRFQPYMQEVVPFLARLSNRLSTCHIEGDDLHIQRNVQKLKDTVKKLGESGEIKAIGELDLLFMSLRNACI", "experiment": "SAA induction by IL-TIF in mice, inhibition by zcytor16-Fc4", "format": "in vivo", "conditions": "3 μg IL-TIF IP with 20-100 ug zcytor16-Fc4 IP 15 minutes before", "method": "To assess whether zcytor16 could inhibit the SAA induction by IL-TIF mice (female, C3H/HEJ, 8 weeks old; Jackson Labs, Bar Harbor, Me.) were divided into five groups of three animals each and treated by IP injection of proteins as shown in Table 15 below:\nThe zcytor16 injections preceded the IL-TIF injection by 15 minutes. Both protein injections were given by the intraperitoneal route. A blood sample was taken from each mouse prior to treatment, then at 2 and 6 hours after treatment. Serum was prepared from each of the samples for measurement of SAA and IL-TIF.\nAn ELISA was performed as described previously to determine the level of SAA in mice treated with IL-TIF and a soluble receptor for IL-TIF, zcytor16-Fc4 described herein."}}}
{"molecule": "B1", "values": [{"measurement": "disease score (paw score, incident of inflammation or disease)", "setting": "[1]; 10 μg three times a week for 4 weeks", "result": "significantly reduced the disease score"}, {"measurement": "IL-6 levels", "setting": "[1]; 10 μg zcytor16", "result": "10,865+/−1478 pg/ml"}, {"measurement": "SAA concentrations", "setting": "[1]; 10 μg zcytor16", "result": "348 ± 37", "unit": "µg/mL"}, {"measurement": "levels of anti-collagen antibodies", "setting": "[1]; 100 μg or 10 μg groups vs PBS, serum ELISA", "result": "no statistically significant effects"}, {"measurement": "IL-6 levels", "setting": "[1]; 100 μg zcytor16", "result": "9651 ± 1563", "unit": "pg/mL"}, {"measurement": "SAA concentrations", "setting": "[1]; 100 μg zcytor16", "result": "381 ± 40", "unit": "µg/mL"}, {"measurement": "paw scores and measurements", "setting": "[1]; 100 or 10 μg IP 3 times a week for 4 weeks vs PBS", "result": "No statistically significant differences"}, {"measurement": "changes in body weight, CBC parameters, or anti-collagen antibody levels", "setting": "[1]; 100 or 10 μg IP vs PBS", "result": "no significant differences"}, {"measurement": "level of SAA", "setting": "IL-TIF", "result": "reduction in the level of SAA induced by IL-TIF alone to background levels"}]}
